# In US6780984B2, “Method for prognosing cancer and the proteins involved” (Northwestern University, priority 2000, dated 2004):
# B1: calreticulin: multi-functional Ca++ binding protein of the endoplasmic reticulum, human SEQ ID NO:36; overexpressed from pcDNA3.1/crt (protein)
# chain: MLLSVPLLLGLLGLAVAEPAVYFKEQFLDGDGWTSRWIESKHKSDFGKFVLSSGKFYGDEEKDKGLQTSQDARFYALSASFEPFSNKGQTLVVQFTVKHEQNIDCGGGYVKLFPNSLDQTDMHGDSEYNIMFGPDICGPGTKKVHVIFNYKGKNVLINKDIRCKDDEFTHLYTLIVRPDNTYEVKIDNSQVESGSLEDDWDFLPPKKIKDPDASKPEDWDERAKIDDPTDSKPEDWDKPEHIPDPDAKKPEDWDEEMDGEWEPPVIQNPEYKGEWKPRQIDNPDYKGTWIHPEIDNPEYSPDPSIYAYDNFGVLGLDLWQVKSGTIFDNFLITNDEAYAEEFGNETWGVTKAAEKQMKDKQDEEQRLKEEEEDKKRKEEEEAEDKEDDEDKDEDEEDEEDKEEDEEEDVPGQAKDEL
# Experiments:
# prostate cancer cell = assay: Effect of calreticulin overexpression on other cellular functions; type: cell-based
# [1] = Repeat A of the Proline-rich Domain; read-out: Kd, high affinity Ca++ binding; cited from earlier work
# PC3 cells = assay: Soft agar assay (anchorage-independent growth); type: cell-based, human; details: stable overexpression in PC3 sublines
# Experimental: FIGS. 4A-4D show the effect of calreticulin overexpression on colony formation of PC3 cells in a soft agar assay, PC3 (FIG. 4A), Mock (FIG. 4B), Crt 35 (FIG. 4C) and Crt 59 (FIG. 4). The soft agar assay was conducted in 6-well plates. The bottom agar is 2 ml 0.6% noble agar containing 1×RPMI 1640 medium supplemented with 10% fetal bovine serum (FBS). After the preparation of bottom agar, 1 ml of 0.3% top agar containing 5,000 cells and 1×RPMI 1640 medium supplemented with 10% FBS was added to form the top layer. The assay for each PC3 subline was carried out in duplicate and was repeated at least 3 times.
# Colonies with greater than 125 um in diameter were counted in the quantification. Error bars represent standard error means (SEM).
# Soft agar assay: The soft agar assay was conducted in 6-well plates. The bottom agar is 2 ml 0.6% noble agar containing 1×RPMI 1640 medium supplemented with 10% FBS. After the preparation of bottom agar, 1 ml of 0.3% top agar containing 5,000 cells and 1×RPMI 1640 medium supplemented with 10% FBS was added to form the top layer. The assay for each PC3 subline was carried out in duplicate and was repeated at least 3 times.
# [2] = tested on: xenograft rat Dunning AT3.1 prostate cancer cells; assay: Metastasis of AT3.1 xenografts in nude mice; type: in vivo; details: restoration of calreticulin expression
# [3] = tested on: TSU prostate cancer cells; assay: Anchorage-independent growth of TSU cells; type: cell-based, human; details: overexpression in TSU cells
# Excerpt: Anchorage-independent growth in soft agar correlates with the metastatic potential of cancer cells [Cifone and Fidler, Proc. Nat. Acad. Sci. USA, 77:1039-43 (1980)].
molecule,measurement,setting,value
B1,Ca++ ionophore-induced apoptosis,prostate cancer cell,inhibits Ca^((+))((+)) ionophore-induced apoptosis
same,cell attachment,prostate cancer cell,enhances cell attachment
same,cell proliferation,prostate cancer cell,inhibits prostate cancer cell proliferation
same,Kd,[1],1.6 µM
same,colony formation in soft agar,PC3 cells,significantly inhibited the size and number of the PC3 colonies
same,metastasis of xenograft,[2],markedly inhibits the metastasis
same,anchorage-independent growth,[3],markedly inhibited anchorage-independent growth
